Data as given in US20250340902A1, “GENE THERAPY FOR BVES-RELATED DISORDERS” (OHIO STATE INNOVATION FOUNDATION, priority 2022, published 2025).

Tests used:
Assay in all cases: anti-HA co-IP from muscle, MS; CTRL 0
[1] = biological target: DnaJ homolog subfamily B member 2 (Mus musculus) (UniProt Q9QYI5)
[2] = biological target: ATP-binding cassette sub-family C member 9 (Mus musculus) (UniProt P70170)
[3] = biological target: Myocilin (Mus musculus) (UniProt O70624)
[4] = biological target: Elongin-A (Mus musculus) (UniProt Q8CB77)
[5] = biological target: Ribosomal protein S6 kinase alpha-2 (Mus musculus) (UniProt Q9WUT3)
[6] = biological target: Gamma-sarcoglycan (Mus musculus) (UniProt P82348)
Gamma-sarcoglycan (Mus musculus), sequence (P82348 whole entry): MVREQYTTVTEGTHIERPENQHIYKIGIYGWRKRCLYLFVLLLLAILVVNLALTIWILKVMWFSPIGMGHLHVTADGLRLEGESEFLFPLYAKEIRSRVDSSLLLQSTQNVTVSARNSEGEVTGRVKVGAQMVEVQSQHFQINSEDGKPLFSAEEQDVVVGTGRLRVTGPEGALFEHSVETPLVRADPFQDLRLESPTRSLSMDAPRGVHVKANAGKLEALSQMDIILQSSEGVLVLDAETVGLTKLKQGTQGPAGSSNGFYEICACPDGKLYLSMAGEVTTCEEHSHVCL

[7] = biological target: Glypican-4 (Mus musculus) (UniProt P51655)
Glypican-4 (Mus musculus), sequence (P51655 19-529 limits assumed): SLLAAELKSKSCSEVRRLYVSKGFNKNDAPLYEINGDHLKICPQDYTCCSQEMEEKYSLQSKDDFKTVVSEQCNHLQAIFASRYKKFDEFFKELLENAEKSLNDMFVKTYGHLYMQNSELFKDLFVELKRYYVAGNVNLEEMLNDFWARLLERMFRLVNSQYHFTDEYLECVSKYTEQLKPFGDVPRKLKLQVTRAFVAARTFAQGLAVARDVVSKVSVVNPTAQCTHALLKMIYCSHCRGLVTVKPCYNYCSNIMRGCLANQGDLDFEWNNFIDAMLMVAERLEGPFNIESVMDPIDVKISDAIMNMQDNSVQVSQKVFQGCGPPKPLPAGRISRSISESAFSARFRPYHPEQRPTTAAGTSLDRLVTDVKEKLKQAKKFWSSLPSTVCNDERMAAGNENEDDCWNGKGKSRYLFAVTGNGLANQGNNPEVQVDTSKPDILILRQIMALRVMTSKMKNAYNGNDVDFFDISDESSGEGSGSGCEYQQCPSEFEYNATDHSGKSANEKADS

[8] = biological target: Dystrobrevin alpha (Mus musculus) (UniProt Q9D2N4)
[9] = biological target: Extended synaptotagmin-2 (Mus musculus) (UniProt Q3TZZ7)
[10] = biological target: Platelet glycoprotein 4 (Mus musculus) (UniProt Q08857)
Platelet glycoprotein 4 (Mus musculus), sequence (Q08857 whole entry): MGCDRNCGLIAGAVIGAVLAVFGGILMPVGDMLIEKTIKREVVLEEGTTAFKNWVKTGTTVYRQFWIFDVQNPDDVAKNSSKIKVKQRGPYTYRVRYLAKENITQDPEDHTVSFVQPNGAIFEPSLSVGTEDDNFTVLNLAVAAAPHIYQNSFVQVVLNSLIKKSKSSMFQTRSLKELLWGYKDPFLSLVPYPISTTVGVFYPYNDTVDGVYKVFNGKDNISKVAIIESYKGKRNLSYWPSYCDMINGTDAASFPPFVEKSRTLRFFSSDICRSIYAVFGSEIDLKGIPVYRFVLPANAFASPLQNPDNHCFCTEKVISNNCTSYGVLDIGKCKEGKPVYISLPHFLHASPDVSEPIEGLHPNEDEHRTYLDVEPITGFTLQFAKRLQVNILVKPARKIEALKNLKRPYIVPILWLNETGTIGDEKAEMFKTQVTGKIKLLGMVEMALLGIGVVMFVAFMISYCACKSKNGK

[11] = biological target: Dysferlin (Mus musculus) (UniProt Q9ESD7)
[12] = biological target: Popeye domain-containing protein 3 (Mus musculus) (UniProt Q9ES81)
[13] = biological target: Indolethylamine N-methyltransferase (Mus musculus) (UniProt P40936)
[14] = biological target: Carboxypeptidase N catalytic chain (Mus musculus) (UniProt Q9JJN5)
[15] = biological target: N-alpha-acetyltransferase 50 (Mus musculus) (UniProt Q6PGB6)
[16] = biological target: Proliferation-associated protein 2G4 (Mus musculus) (UniProt P50580)
[17] = biological target: Plasma membrane calcium-transporting ATPase 1 (Mus musculus) (UniProt G5E829)
[18] = biological target: Monocarboxylate transporter 4 (Mus musculus) (UniProt P57787)
Monocarboxylate transporter 4 (Mus musculus), sequence (P57787 whole entry): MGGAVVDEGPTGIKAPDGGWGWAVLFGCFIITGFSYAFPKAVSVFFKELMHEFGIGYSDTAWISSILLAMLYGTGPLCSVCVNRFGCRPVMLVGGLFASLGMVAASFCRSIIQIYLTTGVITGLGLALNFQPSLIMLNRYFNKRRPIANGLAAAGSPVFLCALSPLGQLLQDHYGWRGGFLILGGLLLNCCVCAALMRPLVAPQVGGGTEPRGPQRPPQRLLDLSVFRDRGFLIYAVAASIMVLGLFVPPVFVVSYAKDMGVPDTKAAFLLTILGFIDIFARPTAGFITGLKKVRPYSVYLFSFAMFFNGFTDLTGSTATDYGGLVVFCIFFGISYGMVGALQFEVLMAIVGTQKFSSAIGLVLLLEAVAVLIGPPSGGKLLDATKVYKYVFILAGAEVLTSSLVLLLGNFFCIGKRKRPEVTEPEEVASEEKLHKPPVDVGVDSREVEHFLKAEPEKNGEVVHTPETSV

[19] = biological target: Keratin, type II cytoskeletal 7 (Mus musculus) (UniProt Q9DCV7)
[20] = biological target: Endoplasmic reticulum transmembrane helix translocase (Mus musculus) (UniProt Q9EPE9)
[21] = biological target: Ankyrin-3 (Mus musculus) (UniProt G5E8K5)
[22] = biological target: Solute carrier family 12 member 2 (Mus musculus) (UniProt P55012)
[23] = biological target: Heparin cofactor 2 (Mus musculus) (UniProt P49182)
[24] = biological target: C-type lectin domain family 3 member A (Mus musculus) (UniProt Q9EPW4)
[25] = biological target: Phosphatidylinositol 5-phosphate 4-kinase type-2 beta (Mus musculus) (UniProt Q80XI4)
[26] = biological target: Phosphofurin acidic cluster sorting protein 1 (Mus musculus) (UniProt Q8K212)
[27] = biological target: Lupus La protein homolog (Mus musculus) (UniProt P32067)
[28] = biological target: Charged multivesicular body protein 4b (Mus musculus) (UniProt Q9D8B3)
Charged multivesicular body protein 4b (Mus musculus), sequence (Q9D8B3 2-224 limits assumed): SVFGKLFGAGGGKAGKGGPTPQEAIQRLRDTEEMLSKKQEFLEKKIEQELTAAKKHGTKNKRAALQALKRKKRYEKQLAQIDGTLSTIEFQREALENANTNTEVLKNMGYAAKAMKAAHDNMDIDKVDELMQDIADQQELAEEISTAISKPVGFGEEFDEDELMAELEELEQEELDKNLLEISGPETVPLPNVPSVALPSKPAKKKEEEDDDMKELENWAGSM

[29] = biological target: Probable ubiquitin carboxyl-terminal hydrolase FAF-X (Mus musculus) (UniProt P70398)
[30] = biological target: ATPase family AAA domain-containing protein 3 (Mus musculus) (UniProt Q925I1)
ATPase family AAA domain-containing protein 3 (Mus musculus), sequence (Q925I1 2-591 limits assumed): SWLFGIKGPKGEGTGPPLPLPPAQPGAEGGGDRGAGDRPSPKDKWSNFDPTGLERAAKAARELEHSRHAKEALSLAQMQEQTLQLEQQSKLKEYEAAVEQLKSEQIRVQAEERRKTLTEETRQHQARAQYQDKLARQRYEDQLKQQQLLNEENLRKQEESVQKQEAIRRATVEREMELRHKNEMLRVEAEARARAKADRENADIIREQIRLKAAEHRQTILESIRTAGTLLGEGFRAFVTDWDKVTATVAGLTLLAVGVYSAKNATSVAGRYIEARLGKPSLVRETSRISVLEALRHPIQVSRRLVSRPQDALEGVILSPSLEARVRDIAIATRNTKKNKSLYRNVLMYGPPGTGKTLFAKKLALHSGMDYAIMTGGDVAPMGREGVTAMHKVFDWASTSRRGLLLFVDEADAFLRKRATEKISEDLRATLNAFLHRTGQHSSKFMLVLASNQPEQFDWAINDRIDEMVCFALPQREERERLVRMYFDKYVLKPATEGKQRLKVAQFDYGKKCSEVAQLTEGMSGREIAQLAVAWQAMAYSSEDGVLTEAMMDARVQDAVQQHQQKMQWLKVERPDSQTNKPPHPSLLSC

[31] = biological target: Tubulin alpha-1B chain (Mus musculus) (UniProt P05213)
Tubulin alpha-1B chain (Mus musculus), sequence (P05213 whole entry): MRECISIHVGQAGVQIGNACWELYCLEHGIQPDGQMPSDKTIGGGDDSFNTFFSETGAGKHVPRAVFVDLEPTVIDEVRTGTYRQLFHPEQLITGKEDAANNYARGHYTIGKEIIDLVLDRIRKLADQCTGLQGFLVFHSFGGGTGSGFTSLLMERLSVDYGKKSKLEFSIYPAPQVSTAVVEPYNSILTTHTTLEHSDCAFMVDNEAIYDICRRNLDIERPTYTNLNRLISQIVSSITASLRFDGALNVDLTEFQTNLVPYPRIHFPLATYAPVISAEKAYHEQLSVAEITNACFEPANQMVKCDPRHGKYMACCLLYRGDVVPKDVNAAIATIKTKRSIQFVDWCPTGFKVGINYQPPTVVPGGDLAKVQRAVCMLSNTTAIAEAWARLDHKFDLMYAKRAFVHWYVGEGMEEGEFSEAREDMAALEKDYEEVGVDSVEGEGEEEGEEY

[32] = biological target: Nucleolar and coiled-body phosphoprotein 1 (Mus musculus) (UniProt E9Q5C9)
[33] = biological target: Splicing factor 3A subunit 1 (Mus musculus) (UniProt Q8K4Z5)
[34] = biological target: Basigin (Mus musculus) (UniProt P18572)
[35] = biological target: Vitamin K-dependent protein C (Mus musculus) (UniProt P33587)
Vitamin K-dependent protein C (Mus musculus), sequence (P33587 42-460 limits assumed): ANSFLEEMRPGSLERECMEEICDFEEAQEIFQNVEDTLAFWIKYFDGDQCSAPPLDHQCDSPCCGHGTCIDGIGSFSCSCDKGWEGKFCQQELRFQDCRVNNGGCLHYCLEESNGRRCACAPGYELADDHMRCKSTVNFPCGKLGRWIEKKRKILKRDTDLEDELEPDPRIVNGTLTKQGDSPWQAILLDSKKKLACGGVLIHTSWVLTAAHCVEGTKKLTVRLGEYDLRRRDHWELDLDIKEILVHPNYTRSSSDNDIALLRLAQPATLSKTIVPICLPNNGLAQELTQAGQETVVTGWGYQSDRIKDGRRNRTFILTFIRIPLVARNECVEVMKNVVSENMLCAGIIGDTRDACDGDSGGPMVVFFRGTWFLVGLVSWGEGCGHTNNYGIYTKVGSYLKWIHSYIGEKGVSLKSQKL

[36] = biological target: ATP-binding cassette sub-family F member 2 (Mus musculus) (UniProt Q99LE6)
[37] = biological target: Protein phosphatase 1 regulatory subunit 3A (Mus musculus) (UniProt Q99MR9)
Protein phosphatase 1 regulatory subunit 3A (Mus musculus), sequence (Q99MR9 whole entry): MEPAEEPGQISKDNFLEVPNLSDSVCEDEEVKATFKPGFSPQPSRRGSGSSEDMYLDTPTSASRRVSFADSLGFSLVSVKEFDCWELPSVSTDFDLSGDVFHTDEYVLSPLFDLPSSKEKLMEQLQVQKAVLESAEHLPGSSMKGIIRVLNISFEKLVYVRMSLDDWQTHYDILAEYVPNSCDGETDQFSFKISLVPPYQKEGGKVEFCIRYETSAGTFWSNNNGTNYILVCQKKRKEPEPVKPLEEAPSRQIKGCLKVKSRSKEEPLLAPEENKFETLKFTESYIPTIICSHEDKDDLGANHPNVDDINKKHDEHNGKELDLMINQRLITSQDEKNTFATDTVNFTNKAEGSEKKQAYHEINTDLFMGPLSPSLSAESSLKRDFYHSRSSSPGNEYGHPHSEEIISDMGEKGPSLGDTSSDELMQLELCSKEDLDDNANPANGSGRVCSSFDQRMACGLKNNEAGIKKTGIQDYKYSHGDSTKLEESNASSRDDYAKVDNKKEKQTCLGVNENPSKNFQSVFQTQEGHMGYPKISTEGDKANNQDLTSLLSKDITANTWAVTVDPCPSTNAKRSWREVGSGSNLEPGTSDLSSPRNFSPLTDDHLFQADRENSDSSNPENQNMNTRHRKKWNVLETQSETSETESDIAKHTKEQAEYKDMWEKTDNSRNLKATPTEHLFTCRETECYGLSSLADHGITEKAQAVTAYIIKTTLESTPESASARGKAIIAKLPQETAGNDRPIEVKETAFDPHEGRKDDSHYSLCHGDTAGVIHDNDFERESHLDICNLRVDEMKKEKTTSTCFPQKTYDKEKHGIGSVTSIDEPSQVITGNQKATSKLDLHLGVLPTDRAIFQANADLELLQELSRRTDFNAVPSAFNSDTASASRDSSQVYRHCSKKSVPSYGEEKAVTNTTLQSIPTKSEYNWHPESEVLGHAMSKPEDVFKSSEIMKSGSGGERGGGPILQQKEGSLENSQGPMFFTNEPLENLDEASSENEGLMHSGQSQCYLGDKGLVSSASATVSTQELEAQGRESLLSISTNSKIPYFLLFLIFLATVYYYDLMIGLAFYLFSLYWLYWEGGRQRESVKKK

[38] = biological target: Medium-chain specific acyl-CoA dehydrogenase, mitochondrial (Mus musculus) (UniProt P45952)
[39] = biological target: Nucleolar protein 12 (Mus musculus) (UniProt Q8BG17)

DnaJ homolog subfamily B member 2 (Mus musculus), sequence (Q9QYI5 2-321 limits assumed): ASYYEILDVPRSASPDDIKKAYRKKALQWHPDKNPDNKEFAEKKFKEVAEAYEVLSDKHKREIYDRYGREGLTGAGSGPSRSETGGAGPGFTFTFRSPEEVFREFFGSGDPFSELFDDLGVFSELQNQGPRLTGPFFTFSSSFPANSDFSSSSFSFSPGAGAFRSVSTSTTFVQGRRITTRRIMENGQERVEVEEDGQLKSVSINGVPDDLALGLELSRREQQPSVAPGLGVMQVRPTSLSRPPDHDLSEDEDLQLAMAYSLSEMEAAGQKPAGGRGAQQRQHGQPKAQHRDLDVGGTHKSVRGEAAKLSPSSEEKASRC

human BVES fused with 3xHA tag (from UniProt Q8NE79 1-360)
AAV9-BVES-HA (IP-MS count) [1]: 2 | AAV9-BVES-HA (IP-MS count) [2]: 14 | AAV9-BVES-HA (IP-MS count) [3]: 2 | AAV9-BVES-HA (IP-MS count) [4]: 3 | AAV9-BVES-HA (IP-MS count) [5]: 12 | AAV9-BVES-HA (IP-MS count) [6]: 5 | AAV9-BVES-HA (IP-MS count) [7]: 11 | AAV9-BVES-HA (IP-MS count) [8]: 4 | AAV9-BVES-HA (IP-MS count) [9]: 2 | AAV9-BVES-HA (IP-MS count) [10]: 2 | AAV9-BVES-HA (IP-MS count) [11]: 12 | AAV9-BVES-HA (IP-MS count) [12]: 5 | AAV9-BVES-HA (IP-MS count) [13]: 2 | AAV9-BVES-HA (IP-MS count) [14]: 4 | AAV9-BVES-HA (IP-MS count) [15]: 2 | AAV9-BVES-HA (IP-MS count) [16]: 7 | AAV9-BVES-HA (IP-MS count) [17]: 34 | AAV9-BVES-HA (IP-MS count) [18]: 12 | AAV9-BVES-HA (IP-MS count) [19]: 17 | AAV9-BVES-HA (IP-MS count) [20]: 3 | AAV9-BVES-HA (IP-MS count) [21]: 242 | AAV9-BVES-HA (IP-MS count) [22]: 3 | AAV9-BVES-HA (IP-MS count) [23]: 4 | AAV9-BVES-HA (IP-MS count) [24]: 6 | AAV9-BVES-HA (IP-MS count) [25]: 2 | AAV9-BVES-HA (IP-MS count) [26]: 2 | AAV9-BVES-HA (IP-MS count) [27]: 2 | AAV9-BVES-HA (IP-MS count) [28]: 2 | AAV9-BVES-HA (IP-MS count) [29]: 3 | AAV9-BVES-HA (IP-MS count) [30]: 3 | AAV9-BVES-HA (IP-MS count) [31]: 13 | AAV9-BVES-HA (IP-MS count) [32]: 3 | AAV9-BVES-HA (IP-MS count) [33]: 4 | AAV9-BVES-HA (IP-MS count) [34]: 4 | AAV9-BVES-HA (IP-MS count) [35]: 2 | AAV9-BVES-HA (IP-MS count) [36]: 2 | AAV9-BVES-HA (IP-MS count) [37]: 12 | AAV9-BVES-HA (IP-MS count) [38]: 2 | AAV9-BVES-HA (IP-MS count) [39]: 2
